Like-named read-outs stand apart in the source and are kept apart here. Non-standard residues stand in square brackets, D forms with d. Residues, ends and D or L forms follow the SMILES beside them. *: point of attachment. Sta = CC(C)C[C@H](N)[C@@H](O)CC(=O)O; Isovaleryl = CC(C)CC(=O)*
Experiments:
purified S1P(187-983) = biological target: T1, purified S1P(187-983) (Cricetulus griseus, UniProt Q9Z2A8); assay type: biochemical, hamster; settings: for inhibition of S1P at extremely high concentrations: extremely high concentrations of inhibitor; for Relative Activity (comparative cleavage of fluorogenic synthetic peptidyl substrates): cleavage by purified S1P-C(187-983), MCA-peptide 100 μM, pH 8.0, 37° C.
T1 construct: 1.5-5 μg of purified S1P(187-983); made in house; host or cells: SRD-12B cells (CHO-derived) stably transfected with pCMV-S1P(983)-Myc-His (TR-3117, 'S1P(983) cells'); The protein was secreted into serum-free medium and purified on Ni-NTA agarose
T1 sequence (Q9Z2A8 187-983): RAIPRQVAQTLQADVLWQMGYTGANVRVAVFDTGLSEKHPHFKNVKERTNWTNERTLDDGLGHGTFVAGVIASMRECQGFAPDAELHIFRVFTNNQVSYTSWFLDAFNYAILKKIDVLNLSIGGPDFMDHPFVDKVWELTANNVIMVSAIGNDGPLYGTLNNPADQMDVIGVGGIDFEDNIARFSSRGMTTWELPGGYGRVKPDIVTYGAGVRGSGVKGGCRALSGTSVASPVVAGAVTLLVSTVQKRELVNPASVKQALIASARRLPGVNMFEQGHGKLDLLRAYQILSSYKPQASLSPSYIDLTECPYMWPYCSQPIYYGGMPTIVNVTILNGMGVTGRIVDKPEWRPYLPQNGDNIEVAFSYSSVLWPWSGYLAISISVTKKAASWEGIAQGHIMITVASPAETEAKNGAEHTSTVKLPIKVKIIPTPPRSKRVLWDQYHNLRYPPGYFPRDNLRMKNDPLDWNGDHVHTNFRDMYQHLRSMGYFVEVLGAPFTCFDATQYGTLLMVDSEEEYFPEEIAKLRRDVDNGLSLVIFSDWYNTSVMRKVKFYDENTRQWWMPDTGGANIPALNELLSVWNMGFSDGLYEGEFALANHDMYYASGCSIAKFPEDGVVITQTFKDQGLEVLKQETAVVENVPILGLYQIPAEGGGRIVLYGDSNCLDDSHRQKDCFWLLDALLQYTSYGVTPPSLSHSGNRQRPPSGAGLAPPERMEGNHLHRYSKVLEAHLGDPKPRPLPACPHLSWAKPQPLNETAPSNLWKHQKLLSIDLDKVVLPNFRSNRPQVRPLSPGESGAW
Method: Stock cultures of S1P(983) cells were grown in 850-cm^2 roller bottles in medium B supplemented with 5% (v/v) newborn calf lipoprotein-deficient serum and 500 μg/mL G418. On day 0, 10 roller bottles of S1P(983) cells were seeded at a density of ˜4×10^7 cells/roller bottles. On day 2, the medium was replaced with 100 mL of serum-free medium CHO-S-SFMII. The medium from each roller bottle was collected daily from day 3 to day 7. The collected medium was pooled, filtered through 0.45-μm cellulose acetate low-protein binding membrane filter units (Corning Costar) and stored at 4° C. for 0 to 4 days. On day 7, the filtered medium was adjusted to pH 8.0 by addition of tris-HCl at a final concentration of 25 mM, and then loaded onto four parallel 5-mL Ni-NTA agarose columns (Qiagen, Inc., Chatsworth, Calif.) equilibrated with 20 mL of buffer B (25 mM tris-HCl at pH 8.0, 10% (v/v) glycerol, 1 mM CaCl2). The chromatography was performed at 4° C. via gravity at ˜100 mL/hr. The column was washed with 40 mL of buffer B supplemented with 1M NaCl followed by 20 mL of buffer B without NaCl. […] The eluate was concentrated with a Centriprep 30 filter followed by a Centricon 30 filter (Amicon, Inc.).
S1P activity was measured fluorometrically with MCA-conjugated peptidyl substrates. Each reaction was carried out in 0.2 mL of assay buffer (25 mM tris, 25 mM Mes, 25 mM acetic acid, and 1 mM CaCl2 adjusted to pH 8.0 with concentrated NaOH). Reactions contained MCA-peptide (final concentration 100 μM, added in 2 μl DMSO) and 1.5-5 μg of purified S1P(187-983). After incubation for 0.5-5 h at 37° C., each reaction was terminated by addition of 1 mL of ice-cold 5 mM sodium EDTA. The liberated 7-amino-4-methylcoumarin (AMC) was measured with a Perkin-Elmer LS-30 luminescence spectrometer (360 nm excitation, 460 nm emission). A standard curve of fluorescence intensity was generated with different concentrations of AMC (Promega).

Ac-Arg-Ser-Val-Leu-MCA = test system: T2, Ac-Arg-Ser-Val-Leu-MCA
T2 sequence: XSVX

[1] = test system: T3, Ac-Val-Phe-Arg-Ser-Leu-Lys-MCA
T3 sequence: XFRSLX

[2] = test system: T4, Ac-Ser-Gly-Ser-Gly-Arg-Ser-Val-Leu-MCA
T4 sequence: XGSGRSVX

Boc-Arg-Val-Arg-Arg-MCA = test system: T5, Boc-Arg-Val-Arg-Arg-MCA
T5 sequence: XVRX

Ac-Arg-Ser-Leu-Lys-MCA = test system: T6, Ac-Arg-Ser-Leu-Lys-MCA
T6 sequence: XSLX

[3] = test system: T7, Ac-Val-Phe-Arg-Ser-Arg-Arg-MCA
T7 sequence: XFRSRX

[4] = test system: T8, Ac-Ser-Gly-Arg-Ser-Val-Leu-MCA
T8 sequence: XGRSVX

[5] = test system: T9, Ac-Val-Phe-Ala-Ser-Leu-Lys-MCA
T9 sequence: XFASLX

[6] = incubated with substrate Ac-VFRSLK-MCA

Row | Molecule | inhibition of S1P (purified S1P(187-983); [6]) | Relative Activity (comparative cleavage of fluorogenic synthetic peptidyl substrates) (purified S1P(187-983)) | other results
1 | O[C@H](CS)[C@H](O)CS (racemic) [dithiothreitol] |  |  | inhibition of S1P at extremely high concentrations (purified S1P(187-983); [6]): also inhibited S1P
2 | c1cnc2c(c1)ccc1cccnc12 [1,10-phenanthroline] |  |  | inhibition of S1P at extremely high concentrations (purified S1P(187-983); [6]): also inhibited S1P
3 | N=C(N)c1ccc(CS(=O)(=O)F)cc1 [APMSF, (4-amindinophenyl)-methanesulfonyl fluoride] | not significantly inhibited |  | 
4 | O=C(O)CN(CCN(CC(=O)O)CC(=O)O)CC(=O)O [EDTA] |  |  | inhibition of S1P (purified S1P(187-983)): partially inhibited
5 | O=C(O)CN(CCOCCOCCN(CC(=O)O)CC(=O)O)CC(=O)O [EGTA] |  |  | inhibition of S1P at extremely high concentrations (purified S1P(187-983); [6]): also inhibited S1P
6 | O=S(=O)(F)Cc1ccccc1 [PMSF, phenylmethylsulfonyl fluoride] | not significantly inhibited |  | 
7 | Cl.NCCc1ccc(S(=O)(=O)F)cc1 [Pefabloc®] |  |  | inhibition of S1P at high concentrations (purified S1P(187-983); incubated with substrate Ac-VFRSLK-MCA, high concentrations of inhibitor): did inhibit S1P
8 | CC(=O)N[C@@H](CC(C)C)C(=O)N[C@@H](CC(C)C)C(=O)N[C@H](C=O)CCCNC(=N)N [leupeptin] | resistant |  | 
9 | CC(C)CC(=O)N[C@H](C(=O)N[C@H](C(=O)N[C@@H](CC(C)C)[C@@H](O)CC(=O)N[C@@H](C)C(=O)N[C@@H](CC(C)C)[C@@H](O)CC(=O)O)C(C)C)C(C)C [pepstatin] (Isovaleryl-VV[Sta]A[Sta]-OH) | resistant |  | 
10 | Ac-Arg-Ser-Leu-Lys-MCA [Ac-RSLK-MCA, fluorogenic MCA-conjugated peptidyl substrate] |  | 0.47 | 
11 | Ac-Arg-Ser-Val-Leu-MCA [Ac-RSVL-MCA, fluorogenic MCA-conjugated peptidyl substrate] |  | <0.1 | 
12 | Ac-Ser-Gly-Arg-Ser-Val-Leu-MCA [Ac-SGRSVL-MCA, fluorogenic MCA-conjugated peptidyl substrate] |  | <0.1 | 
13 | Ac-Ser-Gly-Ser-Gly-Arg-Ser-Val-Leu-MCA [Ac-SGSGRSVL-MCA, fluorogenic MCA-conjugated peptidyl substrate] |  | <0.1 | 
14 | Ac-Val-Phe-Ala-Ser-Leu-Lys-MCA [Ac-VFASLK-MCA, fluorogenic MCA-conjugated peptidyl substrate] |  | <0.1 | 
15 | Ac-Val-Phe-Arg-Ser-Arg-Arg-MCA [Ac-VFRSRR-MCA, fluorogenic MCA-conjugated peptidyl substrate] |  | <0.1 | 
16 | Ac-Val-Phe-Arg-Ser-Leu-Lys-MCA [Ac-VFRSLK-MCA, fluorogenic MCA-conjugated peptidyl substrate] |  | 1.0 | 
17 | Boc-Arg-Val-Arg-Arg-MCA [Boc-RVRR-MCA, fluorogenic MCA-conjugated peptidyl substrate] |  | <0.1 | 
18 | N-acetyl-leucinal-leucinal-norleucinal [ALLN] | resistant |  | 
19 | aprotinin | resistant |  | 
20 | purified S1P(187-983), secreted form from S1P(983)-Myc-His cells (hamster Site-1 protease) |  |  | Relative Activity (cleavage of fluorogenic MCA substrate, release of AMC) (relative activity) (Ac-Arg-Ser-Val-Leu-MCA): < 0.1; Relative Activity (cleavage of fluorogenic MCA substrate, release of AMC) (relative activity) [1]: 1; Relative Activity (cleavage of fluorogenic MCA substrate, release of AMC) (relative activity) [2]: < 0.1; Relative Activity (cleavage of fluorogenic MCA substrate, release of AMC) (relative activity) (Boc-Arg-Val-Arg-Arg-MCA): < 0.1; Relative Activity (cleavage of fluorogenic MCA substrate, release of AMC) (relative activity) (Ac-Arg-Ser-Leu-Lys-MCA): 0.47; Relative Activity (cleavage of fluorogenic MCA substrate, release of AMC) (relative activity) [3]: < 0.1; Relative Activity (cleavage of fluorogenic MCA substrate, release of AMC) (relative activity) [4]: < 0.1; Relative Activity (cleavage of fluorogenic MCA substrate, release of AMC) (relative activity) [5]: < 0.1

Reference: patent US6649593B1, “Modulators of SREBP processing” (priority 1999, dated 2003)
